# Patent US20240424056A1, “Peptides for Anti Fibrotic Therapy” (McMaster University, priority 2021, published 2024)
# Ends that are not written are not given here.
# Experiments:
# Format in all cases: cell-based
# α2M*/csGRP78 interaction [1] = biological target: T1, α2M*/csGRP78 interaction (Mus musculus, UniProt Q6GQT1); assay: High glucose (HG)-induced profibrotic responses in primary mesangial cells (MC), immunoblotting; settings: for HG-induced profibrotic responses in MC: FIG. 11B, 11D; for HG-induced Akt activation (pAkt on S473) / HG-induced upregulation of fibronectin (FN), collagen (Col) IV and CTGF: MC, HG 48 h, peptides 100 nM; for HG-induced Akt activation (pAkt on S473): FIG. 4B; for HG-induced upregulation of fibronectin (FN), collagen (Col) IV and CTGF: FIG. 4C
# T1 construct: endogenous in cells; host or cells: primary mouse mesangial cells (C57BL/6)
# T1 sequence (Q6GQT1 33-1474): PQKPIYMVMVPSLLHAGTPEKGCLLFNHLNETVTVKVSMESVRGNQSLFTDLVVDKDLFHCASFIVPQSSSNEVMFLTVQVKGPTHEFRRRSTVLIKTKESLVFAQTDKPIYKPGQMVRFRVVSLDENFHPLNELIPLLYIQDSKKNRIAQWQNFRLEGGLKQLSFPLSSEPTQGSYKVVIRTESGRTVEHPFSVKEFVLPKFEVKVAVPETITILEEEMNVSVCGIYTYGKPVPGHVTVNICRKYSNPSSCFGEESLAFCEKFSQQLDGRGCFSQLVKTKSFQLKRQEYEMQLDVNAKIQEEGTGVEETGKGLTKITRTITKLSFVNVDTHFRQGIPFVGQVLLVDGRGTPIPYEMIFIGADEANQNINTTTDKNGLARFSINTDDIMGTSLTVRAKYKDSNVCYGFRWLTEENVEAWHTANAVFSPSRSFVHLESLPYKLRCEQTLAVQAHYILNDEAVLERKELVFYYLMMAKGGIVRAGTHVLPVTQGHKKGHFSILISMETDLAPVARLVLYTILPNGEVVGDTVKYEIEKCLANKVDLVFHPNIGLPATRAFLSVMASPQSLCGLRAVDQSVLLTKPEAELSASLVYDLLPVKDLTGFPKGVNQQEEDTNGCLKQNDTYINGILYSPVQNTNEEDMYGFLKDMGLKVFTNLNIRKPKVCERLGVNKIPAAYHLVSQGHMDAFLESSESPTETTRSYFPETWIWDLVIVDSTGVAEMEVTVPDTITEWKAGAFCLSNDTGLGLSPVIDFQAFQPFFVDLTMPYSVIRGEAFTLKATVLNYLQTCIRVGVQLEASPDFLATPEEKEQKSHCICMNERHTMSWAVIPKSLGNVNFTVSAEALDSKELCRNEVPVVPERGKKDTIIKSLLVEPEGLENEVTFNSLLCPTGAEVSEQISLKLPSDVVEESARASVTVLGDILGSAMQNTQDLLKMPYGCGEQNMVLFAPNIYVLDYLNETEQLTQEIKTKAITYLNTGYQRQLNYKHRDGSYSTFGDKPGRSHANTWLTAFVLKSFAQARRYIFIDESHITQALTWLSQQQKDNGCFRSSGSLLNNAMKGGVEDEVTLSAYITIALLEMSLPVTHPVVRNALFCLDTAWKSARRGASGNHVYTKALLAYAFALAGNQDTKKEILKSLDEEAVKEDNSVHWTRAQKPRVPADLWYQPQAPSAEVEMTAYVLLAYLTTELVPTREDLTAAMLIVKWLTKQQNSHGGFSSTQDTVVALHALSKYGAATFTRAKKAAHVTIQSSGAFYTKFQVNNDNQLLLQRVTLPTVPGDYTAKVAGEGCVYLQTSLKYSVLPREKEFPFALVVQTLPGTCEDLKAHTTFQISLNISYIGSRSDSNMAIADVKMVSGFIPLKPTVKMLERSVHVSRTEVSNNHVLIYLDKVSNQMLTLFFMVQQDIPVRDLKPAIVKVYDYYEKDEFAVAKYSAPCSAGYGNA
# Description: (§1) Cell Culture-Primary mesangial cells (MC) were obtained from male C57BL/6 mice by glomerular sieving and cultured in Dulbecco's modified Eagle's medium (Sigma) supplemented with 20% fetal bovine serum, streptomycin (100 μg/mL) and penicillin (100 μg/mL). 1LN prostate cancer cells, which express high levels of csGRP78 (as described in Hart et al., J Biol Chem. 2002; 277 (44): 42082-42087) were cultured in RPMI 1640 supplemented with 10% fetal bovine serum (ThermoFisher). Cells were grown at 37° C. in 95% 02 and 5% CO2. The immortalized human proximal tubular cell line HK2 (ATCC, Burlington, Canada) was cultured in 10% FBS in DMEM/F12 medium. Primary rat renal fibroblasts (Cell Biologics, Burlington, Canada) and cultured in 10% FBS in DMEM/F12 medium. MC were serum deprived in medium with 1% bovine serum albumin (BSA) and HK2 and RF cells were starved in 0.5% FBS 24 h before treatment with HG (30 mM), mannitol (24.4 mM) as osmotic control or methylamine-activated α2M (100 pM). The peptide sequence in GRP78 to which α2M* binds was used to block their interaction (CLIGRTWNDPSVQQDIKFL) (Leu^98-Leu^115 with an additional N-terminal cysteine) (Gopal et al., J Biol Chem. 2016; 291 (20): 10904-10915). The scrambled peptide, GTNKSQDLWIPQLRDVFI (SEQ ID NO: 4) was used as a control, with both peptides used at 100 nM (Cedarlane). Additional peptides were synthesized by Biomatik as follows: 1) peptide lacking the N-terminal cysteine, 2) peptide in which the cysteine was replaced by a methionine, 3) dimerized peptide via the cysteine (LFKIDQQVSPDNWTRGILC—S—S— CLIGRTWNDPSVQQDIKFL) (SEQ ID NO: 5) head to tail cyclization via an amide which leaves the cysteine intact.
# Protein Extraction and Immunoblotting-Cells were lysed as described previously (Krepinsky et al. Nitric Oxide Inhibits Stretch-Induced MAPK Activation in Mesangial Cells Through RhoA Inactivation. Published online 2003. doi: 10.1097/01.ASN.00000940.85.04161.A7). Proteins were separated using SDS-PAGE followed by immunoblotting. Antibodies used were: α2M (1:1000, Bioss), mouse monoclonal F-α2M, which detects only conformationally changed α2M* as previously described (1:1000), pAkt S473 (1:1000, Cell Signaling), total Akt (1:1000, Cell Signaling),), pSmad3 Ser423/425 (1:4000, Novus), total Smad3 (1:1000, Abcam), phosphorylated focal adhesion kinase (pFAK) Tyr-397 (1:1000, Millipore, 07-012), FAK (1:1000, Santa Cruz Biotechnology, SC558), LRP1 (1:1000, Abcam), GRP78 (C20) (1:1000, Santa Cruz), platelet derived growth factor-β (PDGFR-β) (1:1000, Cedarlane), collagen IV (Col IV) (1:1000, Cell Signaling), fibronectin (FN) (1:1000, Abcam), connective tissue growth factor (CTGF) (1:1000, Santa Cruz), and tubulin (1:2000, Santa Cruz).
# α2M*/csGRP78 interaction [2] = biological target: T2, α2M*/csGRP78 interaction (Homo sapiens, UniProt P01023); assay: Intracellular calcium assay (Fura-2AM) in 1LN cells treated with α2M*
# T2 construct: host or cells: 1LN prostate cancer cells (endogenous csGRP78); α2M* added from outside
# T2 sequence (P01023 24-1474): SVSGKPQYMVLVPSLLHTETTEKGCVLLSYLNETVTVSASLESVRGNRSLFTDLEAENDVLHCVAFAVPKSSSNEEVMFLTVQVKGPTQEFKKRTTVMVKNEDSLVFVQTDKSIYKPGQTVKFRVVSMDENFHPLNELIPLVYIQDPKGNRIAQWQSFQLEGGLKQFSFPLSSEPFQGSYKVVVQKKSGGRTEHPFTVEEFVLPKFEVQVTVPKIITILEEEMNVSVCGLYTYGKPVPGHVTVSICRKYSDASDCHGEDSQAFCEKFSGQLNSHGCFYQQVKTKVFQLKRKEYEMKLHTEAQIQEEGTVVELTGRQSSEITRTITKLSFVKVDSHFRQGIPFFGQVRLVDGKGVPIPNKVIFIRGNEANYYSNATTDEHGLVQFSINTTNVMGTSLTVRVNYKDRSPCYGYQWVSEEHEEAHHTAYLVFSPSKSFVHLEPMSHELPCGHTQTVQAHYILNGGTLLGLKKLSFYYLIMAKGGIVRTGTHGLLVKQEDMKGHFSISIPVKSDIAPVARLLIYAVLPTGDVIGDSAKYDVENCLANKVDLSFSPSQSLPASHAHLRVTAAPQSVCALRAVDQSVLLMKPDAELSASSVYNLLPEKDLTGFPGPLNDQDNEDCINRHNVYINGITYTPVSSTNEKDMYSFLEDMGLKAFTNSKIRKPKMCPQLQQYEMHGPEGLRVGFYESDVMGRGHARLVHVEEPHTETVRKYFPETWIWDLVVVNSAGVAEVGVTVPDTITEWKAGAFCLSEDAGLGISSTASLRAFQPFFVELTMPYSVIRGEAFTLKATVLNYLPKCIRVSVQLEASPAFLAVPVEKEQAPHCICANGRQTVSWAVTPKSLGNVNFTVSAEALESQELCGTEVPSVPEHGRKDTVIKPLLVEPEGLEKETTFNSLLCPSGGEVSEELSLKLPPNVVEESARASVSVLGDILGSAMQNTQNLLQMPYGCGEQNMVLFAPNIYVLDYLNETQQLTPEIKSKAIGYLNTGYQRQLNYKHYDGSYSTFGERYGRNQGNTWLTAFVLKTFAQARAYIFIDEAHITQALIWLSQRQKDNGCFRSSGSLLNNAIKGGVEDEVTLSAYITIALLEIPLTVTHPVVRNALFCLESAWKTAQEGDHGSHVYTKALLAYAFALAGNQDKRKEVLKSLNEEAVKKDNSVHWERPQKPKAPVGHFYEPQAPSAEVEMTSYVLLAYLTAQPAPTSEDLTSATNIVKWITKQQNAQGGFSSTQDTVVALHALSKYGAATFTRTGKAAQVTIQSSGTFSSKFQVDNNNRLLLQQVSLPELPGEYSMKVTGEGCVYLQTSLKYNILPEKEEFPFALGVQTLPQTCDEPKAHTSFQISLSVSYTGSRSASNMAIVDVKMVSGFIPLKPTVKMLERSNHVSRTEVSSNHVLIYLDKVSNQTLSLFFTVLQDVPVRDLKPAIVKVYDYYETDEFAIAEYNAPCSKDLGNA
# Description: as §1, with “The scrambled peptide, GTNKSQDLWIPQLRDVFI (SEQ ID NO: 4) was used as a control, with both peptides used at 100 nM (Cedarlane). Additional peptides were synthesized by Biomatik as follows: 1) peptide lacking the N-terminal cysteine, 2) peptide in which the cysteine was replaced by a methionine, 3) dimerized peptide via the cysteine (LFKIDQQVSPDNWTRGILC—S—S— CLIGRTWNDPSVQQDIKFL) (SEQ ID NO: 5) head to tail cyclization via an amide which leaves the cysteine intact.” left out
# Intracellular Calcium Assay—1LN cells were plated in a 96 black walled clear bottom plate and allowed to grow to confluence over 2 days. After loading with the calcium indicator Fura-2AM (5 μM, Abcam) in HBSS for 45 minutes at 37° C. in the dark, baseline fluorescence readings were taken every minute for 5 minutes using a temperature-controlled fluorescent microplate reader (Gemini EM Spectra Max, Molecular Devices) set to 340 and 380 nm excitation and 510 nm emission. After treatment with methylamine-activated α2M (100 pM) with or without antibody (Fα2M or control IgG, 2 μg) and with or without peptide or scrambled peptide (100 nM), readings were taken every minute for 15 minutes. Intracellular calcium concentrations were determined by calculating the ratio of fluorescence signal (340/380 nm).
# [3] = tested on: csGRP78 interaction with α2M*; assay: HG-induced profibrotic signaling and matrix production in primary rat renal fibroblasts; settings: FIG. 8F
# Description: as §1, with “Additional peptides were synthesized by Biomatik as follows: 1) peptide lacking the N-terminal cysteine, 2) peptide in which the cysteine was replaced by a methionine, 3) dimerized peptide via the cysteine (LFKIDQQVSPDNWTRGILC—S—S— CLIGRTWNDPSVQQDIKFL) (SEQ ID NO: 5) head to tail cyclization via an amide which leaves the cysteine intact.” left out
# [4] = tested on: csGRP78 interaction with α2M*; assay: HG-induced profibrotic signaling and matrix production in human proximal tubular cell line HK2; settings: proximal tubular cells; FIG. 8E
# Description: as §1, with “Additional peptides were synthesized by Biomatik as follows: 1) peptide lacking the N-terminal cysteine, 2) peptide in which the cysteine was replaced by a methionine, 3) dimerized peptide via the cysteine (LFKIDQQVSPDNWTRGILC—S—S— CLIGRTWNDPSVQQDIKFL) (SEQ ID NO: 5) head to tail cyclization via an amide which leaves the cysteine intact.” left out
Substance,HG-induced profibrotic responses in MC (α2M*/csGRP78 interaction [1]),HG-induced Akt activation (pAkt on S473) (α2M*/csGRP78 interaction [1]),"HG-induced upregulation of fibronectin (FN), collagen (Col) IV and CTGF (α2M*/csGRP78 interaction [1])",also measured
"LFKIDQQVSPDNWTRGILC—S—S— CLIGRTWNDPSVQQDIKFL (also: homodimer via disulfide between the N-terminal cysteines of two copies) [Dimer Pep, dimerized peptide via the cysteine]",do not prevent HG-induced profibrotic responses,,,calcium signaling in 1LN cells induced by α2M* (α2M*/csGRP78 interaction [2]; FIG. 11C): do not inhibit calcium signaling
CLIGRTWNDPSVQQDIKFL [Pep],,prevented HG-induced Akt activation,prevented,"HG-induced Akt activation (Ser473) and ECM production [3]: attenuated; HG-induced Akt activation (Ser473) and ECM production [4]: attenuated; release of intracellular calcium stores in response to α2M* (α2M*/csGRP78 interaction [2]; 1-LN cells, α2M* 100 pM, 15 min, peptides 100 nM, FIG. 4A): inhibited release of intracellular calcium stores"
"GTNKSQDLWIPQLRDVFI [Scr, scrambled control peptide, reference compound]",,had no effect,had no effect,
"LIGRTWNDPSVQQDIKFL [Pep woC, peptide without an N-terminal cysteine residue in Leu98-Leu115]",does not prevent HG-induced profibrotic responses,,,"calcium signaling in 1LN cells induced by α2M* (α2M*/csGRP78 interaction [2]; peptide tested at 100 pM and 100 nM, FIG. 11A): did not inhibit calcium signaling"
